Reference: publication PMC5384453, “A multi-functional PEGylated gold(III) compound: potent anti-cancer properties and self-assembly into nanostructures for drug co-delivery” (Chemical Science, 2016)

Experiments:
[1] = In vivo biodistribution by ICP-MS in nude mice bearing HCT116 xenografts; conditions: single-dose i.v., 24 h post-treatment
Text: Significant pulmonary hemorrhage in the alveoli and a thickening of alveolar walls were found. Also, apoptotic hepatocytes and swollen renal epithelial cells were found, leading to subsequent shrinkage of kidney tubules. […] The lower systemic toxicity of 1 can be explained by the lower accumulation of 1 in the organs of mice treated at its effective dosage, as compared to that of 3 and Au1a (Fig. S23 ^†). […] This can be attributable to the nanostructures of 1, which may lead to in vivo tumor accumulation by the EPR effect.[55] […]
(§1) point of tumor growth inhibition study, the mice treated with complex 1, 3 and Au1a, respectively, were sacrificed and tissues including liver, spleen, lung, kidney and heart were harvested. The tissues were digested with 10% HCl in concentrated HNO3 (0.1 g of tissue/1 mL). The solution mixture was heated at 60 °C for 15 h, and then diluted 50 times by ultra-pure water for ICP-MS analysis.
(§2) Determination of in vivo biodistribution of complex 1, 3 and Au1a by ICP-MS.
Nude mice bearing HCT116 xenografts were treated with 1 (13 mg/kg), or equal molar amount of Au1a (2 mg/kg) or 3 (2 mg/kg) through intravenous injection. After 24 h of the injection, the mice were sacrificed and tissues from tumor, liver, spleen, lung, kidney and heart were harvested. The tissues were digested with 10% HCl in concentrated HNO3 (0.1 g of tissue/1 mL). […]

[2] = mouse
Protocol: The anti-tumor experiments using mice were approved by the animal ethics committees of Jinan University and The University of Hong Kong. […]
as §1, §2
Nude mice bearing HCT116 xenografts were treated with 1 (13 mg/kg), or equal molar amount of Au1a (2 mg/kg) or 3 (2 mg/kg) through intravenous injection. After 24 h of the injection, the mice were sacrificed and tissues from tumor, liver, spleen, lung, kidney and heart were harvested. The tissues were digested with 10% HCl in concentrated HNO3 (0.1 g of tissue/1 mL). The solution mixture was heated at 60 °C for 15 h, and then diluted 50 times by ultra-pure water for ICP-MS analysis.
Analysis of tumor tissue from mice treated with complexes 1 by UPLC-QTOF-MS. At the end point of tumor growth inhibition study, the mice treated with solvent control or complex 1 were sacrificed and the tumor tissues were harvested, followed by homogenization in 50% ice-cold acetonitrile (0.1 g/300 µL). […]

[3] = system: A2780cis xenografts; test: In vivo inhibition of tumor growth in nude mice bearing A2780cis xenograft
Protocol: To further investigate the ability of 1 to treat drug-resistant tumors that should be of great interest in clinical application, in vivo antitumor experiments on nude mice bearing cisplatin-resistant A2780cis xenografts with 1 were conducted. […]
every 2 days for 24 days. The control group received equal volume of PBS only.
During the treatment period, the tumor volume and body weight of the nude mice were measured per two days. The tumor volume was calculated by the equation:
Volume (mm3) = l×w2/2, where l and w were the length and width of the tumor. At the end of the treatment, the nude mice were sacrificed and the tumor weight was […]
H&E staining and immunohistochemical (IHC) analysis of mice tissues. […] The expression of p53, Ki67, VEGFR2 and TUNEL was determined by IHC methods as reported previously. […]
animal study. […] During the treatment period, the tumor volume and body weight of the nude mice were measured […]
once every 2–3 days. The tumor volume was calculated by the equation: Volume (mm3) = l×w2/2, where l and w were the length and width of the tumor. At the end of the treatment, the nude mice were sacrificed and the tumor weight was measured. […]
of apoptosis of HCT116 cells was investigated by CellEvent Caspase-3/7 Green ReadyProbes Reagent (30 µL), similar to the procedure of the experiments on gold(III) […]

[Au(TPP–COO–PEG5000–OCH3)]Cl [Compound 1]
higher accumulation in tumor compared to mice treated with 3 ([1]; equal molar amount (1 13 mg kg^–1, 3 2 mg kg^–1)): 2.0 fold | higher accumulation in tumor compared to mice treated with Au1a ([1]; equal molar amount (1 13 mg kg^–1, Au1a 2 mg kg^–1)): 3.3 fold | hydrolysis in vivo (species found in tumor tissues) [2]: [Au(TPP–COOH)]^+ was found in the UPLC-QTOF-MS of tumor tissues | reduction of tumor volume ([3]; 4 mg kg^–1, intravenous injections every 2–3 days for 13 days, n = 5): Over 52% | mouse death / body weight ([3]; A2780cis xenograft nude mice, 4 mg kg^–1 i.v., 13 days): no mouse death or significant loss in body weight
